Measured values published in US20140161875A1 (KATHOLIEKE UNIVERSITEIT LEUVEN, published 2014).

Legend:
endogenous mouse tau = endogenous mouse tau (mouse, UniProt P10637-2 2-430, limits assumed); assay: Western blot of mouse brain extracts
From the text: FIG. 3: Analysis of the novel mAbs on samples of transgenic mice and human brain. A) Western blot analysis of brain extracts from control mice (FVB), knock-out mice and transgenic (Tg) mice expressing a clinical mutant of human tau (Tau-P301L). The age of the mice is indicated between brackets. The arrow on the second blot indicates high molecular weight tau complexes. The antibodies used are ADx215 (YT1.15), ADx210 (YT1.10) and the commercial phosphorylation-specific antibody AT100 (exposure time of 30 min for ADx210 (YT1.10) and AT100, and 30 sec for ADx215 (YT1.15)). B) Tau epitope sequence recognized by ADx201 (YT1.1) and ADx215 (YT1.15). C) Western blot analysis of brain extracts from brain extracts obtained from a healthy person (non-AD) and an AD patient using the Mab ADx215 (YT1.15) (exposure time 2 min.). The brain regions from which the extracts were prepared are indicated. As control served brain extracts obtained from the hippocampus and cortex of the tau Tg mice Tau22. The arrow indicates high molecular weight tau complexes present in samples from AD brain. […]
Furthermore, the high affinity Mab ADx215 (YT1.15) specifically detected high molecular weight tau complexes in brain extracts of both Tg mice (Fig. A, C) and a late stage AD patient (data provided by L. Buée, Inserm U837, U. Lille, France; Fig. C).

[1] = target: T1, recombinant HIS-tagged tau obtained from E. coli (UniProt P10636-8 1-441, limits assumed); assay: Western blot
T1 construct: also called E. coli-produced recombinant tau; recombinant non-phosphorylated tau purified from bacteria
From the text: FIG. 2: Selectivity for tau aggregates and phosphorylation dependency of anti-tau mAbs of the invention. A) Western blot analysis of recombinant HIS-tagged tau obtained from E. coli and protein extracts obtained from control and humanized yeast strains using the commercial pan-tau antibody Tau-5 and ADx210 mAb as indicated. The number between brackets refers to the exposure time. The solid bar refers to high molecular weight and oligomeric tau and the small arrow in the picture of ADx210 to a presumable tau dimer. B) Western blot analysis of purified tau obtained from the pho85Δ strain before and after treatment with shrimp alkaline phosphatase (SAP) following different time intervals as indicated. Recombinant HIS-tagged tau obtained from E. coli served as control. The pan-tau antibody Tau-5, the phosphorylation-specific antibody AT270, and the antibody BT2 recognizing non-phosphorylated tau, were used in addition to the novel mAbs ADx215 and ADx210.
The phosphorylation specificity was initially tested on extracts obtained from the humanized wild type yeast strain and its congenic mds1Δ and pho85Δ mutants that display reduced and increased tau phosphorylation. Recombinant tau produced by E. coli served as control.

endogenous mouse tau, sequence (P10637 other isoform, or with tags, fused parts or gaps limits assumed): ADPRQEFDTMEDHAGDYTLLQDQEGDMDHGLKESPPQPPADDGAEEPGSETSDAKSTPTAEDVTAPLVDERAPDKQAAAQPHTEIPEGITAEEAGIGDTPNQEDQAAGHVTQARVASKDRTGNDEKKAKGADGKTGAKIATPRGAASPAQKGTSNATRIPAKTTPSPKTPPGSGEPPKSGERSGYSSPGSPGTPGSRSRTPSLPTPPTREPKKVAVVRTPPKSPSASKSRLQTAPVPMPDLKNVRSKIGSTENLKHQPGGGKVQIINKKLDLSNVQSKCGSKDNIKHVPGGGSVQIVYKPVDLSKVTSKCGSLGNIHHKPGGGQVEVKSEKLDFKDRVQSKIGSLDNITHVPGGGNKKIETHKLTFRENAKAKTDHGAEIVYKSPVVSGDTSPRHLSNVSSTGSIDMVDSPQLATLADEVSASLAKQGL

binding result (endogenous mouse tau)	binding result [1]	Binder
no binding		ADx215 monoclonal antibody (hybridoma LMBP 9679CB) (antibody, IgG1, V domains shown, also called YT1.15) VH: EVQLVESGGDLVKPGGSLKLSCAASGFNFRSYGMSWVRQTPDKRLEWVATISSGGNYTYYPDSVKGRFTISRDNAKNILYLQMSSLNSEDTALYYCTYSFYGAFDYWGQGTTLTVSS VL: DVLMTQTPLSLPVSLGDQASISCRSSQNILHSNGNTYLEWYLQKPGQSPKLLIYKVSSRFSGVPDRFSGSGSGTDFTLKITRVEAEDLGVYYCFQGSLVPWTFGGGTKLEIRR
no binding	no binding	ADx210 monoclonal antibody (hybridoma LMBP 8347CB) (antibody, V domains shown, Mouse hybridoma mAb (BALB/C immunised with yeast-purified tau); constant regions are not; also called YT1.10; IGH-593) VH: VQLQESGGGLVQPGGSRKLSCAASGFTFSNFGMHWVRQAPDKGLEWVAYITSGSSSIYYADTVKGRFTISRDNPKNTLFLQMTSLRSEDTAMYYCARSVPYGYGLFDYWGRGTTLTVSS VL: DVLMTQIPVSLSVSLGDQASISCRSSESIVHSSGKTYLEWYLQKPGQSPKLLIYEVSNRFSGVPDRFSGSGSGTDFTLKISRVEAEDLGVYYCFQGSHVPWTFGGGTKLEIKR
